Measurements as given in US20250197513A1 (University of Texas, published 2025).

T1: cell surface human OSMR protein (as used in the ELISA for EC50) (human, UniProt Q99650 28-739, limits assumed)
T1 sequence (looked up): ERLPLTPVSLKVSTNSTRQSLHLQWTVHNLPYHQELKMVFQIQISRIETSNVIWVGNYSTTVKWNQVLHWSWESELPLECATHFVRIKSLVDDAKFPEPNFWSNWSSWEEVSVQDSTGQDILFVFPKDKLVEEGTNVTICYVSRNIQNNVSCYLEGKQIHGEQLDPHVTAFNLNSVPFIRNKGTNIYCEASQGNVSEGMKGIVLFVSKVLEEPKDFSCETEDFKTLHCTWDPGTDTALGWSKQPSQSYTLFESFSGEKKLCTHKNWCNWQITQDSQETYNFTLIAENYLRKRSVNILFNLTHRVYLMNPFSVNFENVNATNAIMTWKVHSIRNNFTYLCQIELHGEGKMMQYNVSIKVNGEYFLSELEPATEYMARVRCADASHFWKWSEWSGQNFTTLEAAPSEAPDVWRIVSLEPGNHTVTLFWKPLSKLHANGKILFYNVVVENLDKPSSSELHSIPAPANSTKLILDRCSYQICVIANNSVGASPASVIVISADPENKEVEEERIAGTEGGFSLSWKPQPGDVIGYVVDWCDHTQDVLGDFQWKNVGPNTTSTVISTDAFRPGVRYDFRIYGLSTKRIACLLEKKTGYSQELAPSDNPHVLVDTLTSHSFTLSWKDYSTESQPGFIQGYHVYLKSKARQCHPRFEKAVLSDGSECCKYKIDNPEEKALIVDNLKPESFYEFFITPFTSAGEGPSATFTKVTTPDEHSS

T2: recombinant OSMR protein (Sino Biologicals, 11226-H08H), extracellular domain of OSMR (UniProt Q99650 28-740)
T2 construct: extracellular domain; also called OSMR antigen
T2 sequence (looked up): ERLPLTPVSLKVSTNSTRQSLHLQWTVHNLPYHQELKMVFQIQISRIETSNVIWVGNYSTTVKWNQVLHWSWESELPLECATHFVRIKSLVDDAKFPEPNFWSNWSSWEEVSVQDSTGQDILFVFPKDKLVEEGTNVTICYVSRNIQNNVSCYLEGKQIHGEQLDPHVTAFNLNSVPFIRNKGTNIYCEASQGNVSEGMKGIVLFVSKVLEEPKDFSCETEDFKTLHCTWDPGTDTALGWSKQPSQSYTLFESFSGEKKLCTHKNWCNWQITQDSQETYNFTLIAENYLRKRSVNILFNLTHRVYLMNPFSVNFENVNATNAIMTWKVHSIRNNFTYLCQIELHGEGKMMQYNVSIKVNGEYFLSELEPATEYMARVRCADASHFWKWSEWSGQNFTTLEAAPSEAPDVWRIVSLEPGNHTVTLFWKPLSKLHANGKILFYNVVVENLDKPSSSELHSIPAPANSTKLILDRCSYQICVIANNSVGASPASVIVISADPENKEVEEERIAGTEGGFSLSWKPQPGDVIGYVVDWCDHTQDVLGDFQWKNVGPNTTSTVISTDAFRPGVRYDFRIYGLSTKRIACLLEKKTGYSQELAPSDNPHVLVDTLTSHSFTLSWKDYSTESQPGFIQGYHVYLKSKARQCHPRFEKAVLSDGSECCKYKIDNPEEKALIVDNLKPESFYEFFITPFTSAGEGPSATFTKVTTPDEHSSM

B1: B18 monoclonal antibody (antibody, V domains shown)
VH: not shown
VL: DVVMTQSPLSLPVTPGEPASISCRSSQSLLHSNGYNYLDWYMQKPGQSPQVLIYLGSNRASGVPDRFSGSGSGTDFTLKISRVEAEDVGVYYCMQALQTPHTFGQGTTVDIK
notes: also called B18 mAb; B18 antibody clones
B2: OSMR on human ovarian cancer cells (HEYA8, OVCAR4, A2780) (receptor, UniProt Q99650 28-979, looked up)
chain: ERLPLTPVSLKVSTNSTRQSLHLQWTVHNLPYHQELKMVFQIQISRIETSNVIWVGNYSTTVKWNQVLHWSWESELPLECATHFVRIKSLVDDAKFPEPNFWSNWSSWEEVSVQDSTGQDILFVFPKDKLVEEGTNVTICYVSRNIQNNVSCYLEGKQIHGEQLDPHVTAFNLNSVPFIRNKGTNIYCEASQGNVSEGMKGIVLFVSKVLEEPKDFSCETEDFKTLHCTWDPGTDTALGWSKQPSQSYTLFESFSGEKKLCTHKNWCNWQITQDSQETYNFTLIAENYLRKRSVNILFNLTHRVYLMNPFSVNFENVNATNAIMTWKVHSIRNNFTYLCQIELHGEGKMMQYNVSIKVNGEYFLSELEPATEYMARVRCADASHFWKWSEWSGQNFTTLEAAPSEAPDVWRIVSLEPGNHTVTLFWKPLSKLHANGKILFYNVVVENLDKPSSSELHSIPAPANSTKLILDRCSYQICVIANNSVGASPASVIVISADPENKEVEEERIAGTEGGFSLSWKPQPGDVIGYVVDWCDHTQDVLGDFQWKNVGPNTTSTVISTDAFRPGVRYDFRIYGLSTKRIACLLEKKTGYSQELAPSDNPHVLVDTLTSHSFTLSWKDYSTESQPGFIQGYHVYLKSKARQCHPRFEKAVLSDGSECCKYKIDNPEEKALIVDNLKPESFYEFFITPFTSAGEGPSATFTKVTTPDEHSSMLIHILLPMVFCVLLIMVMCYLKSQWIKETCYPDIPDPYKSSILSLIKFKENPHLIIMNVSDCIPDAIEVVSKPEGTKIQFLGTRKSLTETELTKPNYLYLLPTEKNHSGPGPCICFENLTYNQAASDSGSCGHVPVSPKAPSMLGLMTSPENVLKALEKNYMNSLGEIPAGETSLNYVSQLASPMFGDKDSLPTNPVEAPHCSEYKMQMAVSLRLALPPPTENSSLSSITLLDPGEHYC
notes: whole, on cells; also called Oncostatin M receptor; OMSR receptors
B3: B07 monoclonal antibody (antibody, V domains shown)
VH: QVQLVESGGGVVRPGGSLRLSCAASGFTFDDYGMSWVRQAPGKGLEWVSGINWNGGSTGYADSVKGRFTISRDNAKNSLYLQMNSLRAEDTALYHCARVNYDSSGLRGAFDIWGQGTMVTVSS
VL: NIQMTQSPSSLSASVGDRVTITCQASQYISNSLNWYQQKPGKAPNLLLYDATNLEPGVPSRFSGSGSRTDFTLTISSLQPEDIATYYCQQYHNLPPTFGQGTRLEIK
notes: also called B07 mAb

Assays:
[1] = target: T1, cell surface human OSMR protein (as …); assay: ELISA
[2] = target: T2, recombinant OSMR protein (Sino …); assay: screening of full-length IgG1 clones on recombinant OSMR extracellular domain
[3] = target: the molecule itself; assay: dimerization assay (cross-linking, immunoprecipitation) after OSM stimulation
Description: Dimerization assay: Dimerization assay was performed as mentioned previously (Bublil et al., 2010; Turk and Chapkin, 2015) with some modifications. […] The […] were incubated with non-permeable cross-linking reagent, 3 mM bis (sulphosuccinimidyl) suberate [BS3 (Pierce)], cross-linking reagent on ice for 30 min and subsequently quenched with 250 mM Glycine. The cells were washed with ice cold PBS and cells were lysed using RIPA buffer as mentioned earlier.

| Binder | binding result [1] | binding result [2] | binding result [3] |
| --- | --- | --- | --- |
| B1 | no binding | binds | – |
| B2 | – | – | binds |
| B3 | – | binds | – |
